Measured values as given in publication PMC11964946.

Target: Vicia altissima seed lectin (VICALTA) (Vicia altissima)
Experiment: native gel or EMSA; native PAGE on Mini-PROTEAN TGX 4%-20% precast gels (single band at 87 kDa), compared with SDS-PAGE (single band at 38 kDa); purified seed lectin

- stoichiometry N: 2
Substance: Vicia altissima seed lectin (VICALTA) (natural protein)
